Assay results as given in PMC10907721.
Substitutions are numbered along the chain they refer to.

How the values were obtained:
Assay in all cases: EMSA
Details in all cases: EMSA: 20 mM Tris-HCl pH 7.5, 25 mM NaCl, 2 mM beta-mercaptoethanol, 10% glycerol; 50 nM nucleosome or DNA; 15 min room temperature; 6% TBE-acrylamide gel, 0.2X …
[1] = target: T1, Hop1 CBR loop2+3 mutant R402A;K403A;K404A;K405A;K452A;R458A (Saccharomyces cerevisiae) (UniProt P20050)
T1 sequence: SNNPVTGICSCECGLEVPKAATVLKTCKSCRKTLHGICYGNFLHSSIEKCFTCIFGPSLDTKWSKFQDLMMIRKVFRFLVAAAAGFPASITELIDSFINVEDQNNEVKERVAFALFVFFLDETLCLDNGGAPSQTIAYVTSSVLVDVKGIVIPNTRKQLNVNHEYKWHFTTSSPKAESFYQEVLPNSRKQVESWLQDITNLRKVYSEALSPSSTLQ

[2] = target: T2, Hop1 CBR loop2 mutant R402A;K403A;K404A;K405A (Saccharomyces cerevisiae) (UniProt P20050)
T2 sequence: T1 sequence with A131K, A137R

[3] = target: T3, Hop1 CBR loop 1+3 mutant N362A;H365A;K452A;R458A (Saccharomyces cerevisiae) (UniProt P20050)
T3 sequence: T1 sequence with N41A, H44A, A81R, A82K, A83K, A84K

[4] = target: T4, Hop1 CBR loop 1 mutant N362A;H365A (Saccharomyces cerevisiae) (UniProt P20050)
T4 sequence: T1 sequence with N41A, H44A, A81R, A82K, A83K, A84K, A131K, A137R

[5] = target: T5, Hop1 CBR loop 1+2+3 mutant N362A;H365A;R402A;K403A;K404A;K405A;K452A;R458A (Saccharomyces cerevisiae) (UniProt P20050)
T5 sequence: T1 sequence with N41A, H44A

[6] = target: T6, Hop1 CBR loop 1+2 mutant N362A;H365A;R402A;K403A;K404A;K405A (Saccharomyces cerevisiae) (UniProt P20050)
T6 sequence: T1 sequence with N41A, H44A, A131K, A137R

[7] = target: T7, Hop1 CBR loop 3 mutant K452A;R458A (Saccharomyces cerevisiae) (UniProt P20050)
T7 sequence: T1 sequence with A81R, A82K, A83K, A84K

Sequence: TGGAGAATCCCGGTGCCGAGGCCGCTCAATTGGTCGTAGACAGCTCTAGCACCGCTTAAACGCACGTACGCGCTGTCCCCCGCGTTTTAACCGCCAAGGGGATTACTCCCTAGTCTCCAGGCACGTGTCAGATATATACATCCTGT (double strand) [Widom 601 mononucleosome (human histones)]
- Kd [1]: > 50 µM
- Kd [2]: > 50 µM
- Kd [3]: 13 µM
- Kd [4]: 2 µM
- Kd [5]: > 50 µM
- Kd [6]: > 50 µM
- Kd [7]: 50 µM
